Data on 25 molecules can be found in patent publication US20240317859A1 (FOUNDATION FOR BIOMEDICAL RESEARCH AND INNOVATION AT KOBE, published 2024).

In general, Kd refers to the concentration at which binding is half-saturated. Read a high Kd as a looser complex.

The labels stand for the following.
B1: HM242-C2 (antibody, human IgG1, V domains shown)
VH: QVQLVQSGPEVKKPGASVKVVCKASGYTFTSYYIQWVKQRPGQGLEWIGWIYPGDGTTKYNEKFKGRVTMTIDKSTRTAYMELRSLRSDDTAVYYCASYYGSYFDYWGQGTLVTVSS
VL: DIQMTQSPSSLSASVGDRVTITCRASQDISNYLNWYQQKPDGTVTLLIYYTSKLHSGVPSRFSGSGSGTDYTLTISSLQPEDFATYYCQQSSTLPFTFGQGTKLEIK
notes: also called humanized HM242, VH ver.C / VL ver.2
B2: HM242-D1 (antibody, human IgG1, V domains shown)
VH: B1 VH with K38R, R40V, I48M, K74T, R77S
VL: B1 VL with S7T, P8T, Q79E, P80Q, E81K
notes: also called humanized HM242, VH ver.D / VL ver.1
B3: HM242-A1 (antibody, human IgG1, V domains shown)
VH: B1 VH with V11L, K12V, R67K, V68T, M70L
VL: B1 VL with S7T, P8T, Q79E, P80Q, E81K
notes: also called humanized HM242, VH ver.A / VL ver.1
B4: HM242-B1 (antibody, human IgG1, V domains shown)
VH: B1 VH with K38R, R40V, I48M, R67K, V68T, M70L
VL: B1 VL with S7T, P8T, Q79E, P80Q, E81K
notes: also called humanized HM242, VH ver.B / VL ver.1
B5: HM242-A2 (antibody, human IgG1, V domains shown)
VH: B1 VH with V11L, K12V, R67K, V68T, M70L
VL: B1 VL
notes: also called humanized HM242, VH ver.A / VL ver.2
B6: HM242-B2 (antibody, human IgG1, V domains shown)
VH: B1 VH with K38R, R40V, I48M, R67K, V68T, M70L
VL: B1 VL
notes: also called humanized HM242, VH ver.B / VL ver.2
B7: humanized HM242-C3-IgG1-K322A (antibody, V domains shown)
VH: B1 VH
VL: DIQMTQSPSSLSASVGDRVTITCRASQDISNYLNWYQQKPGKAPKLLIYYTSKLHSGVPSRFSGSGSGTDYTLTISSLQPEDFATYYCQQSSTLPFTFGQGTKLEIKR
B8: HM242-B3 (antibody, human IgG1, V domains shown)
VH: B1 VH with K38R, R40V, I48M, R67K, V68T, M70L
VL: B1 VL with D41G, G42K, T43A, V44P, T45K
notes: also called humanized HM242, VH ver.B / VL ver.3
B9: HM242-A3 (antibody, human IgG1, V domains shown)
VH: B1 VH with V11L, K12V, R67K, V68T, M70L
VL: B1 VL with D41G, G42K, T43A, V44P, T45K
notes: also called humanized HM242, VH ver.A / VL ver.3
B10: humanized HM242-D3-IgG1-K322A (antibody, V domains shown)
VH: B1 VH with K38R, R40V, I48M, K74T, R77S
VL: B7 VL
B11: HM242-D2 (antibody, human IgG1, V domains shown)
VH: B1 VH with K38R, R40V, I48M, K74T, R77S
VL: B1 VL
notes: also called humanized HM242, VH ver.D / VL ver.2
B12: chimeric HM242-IgG1-K322A (antibody)
heavy: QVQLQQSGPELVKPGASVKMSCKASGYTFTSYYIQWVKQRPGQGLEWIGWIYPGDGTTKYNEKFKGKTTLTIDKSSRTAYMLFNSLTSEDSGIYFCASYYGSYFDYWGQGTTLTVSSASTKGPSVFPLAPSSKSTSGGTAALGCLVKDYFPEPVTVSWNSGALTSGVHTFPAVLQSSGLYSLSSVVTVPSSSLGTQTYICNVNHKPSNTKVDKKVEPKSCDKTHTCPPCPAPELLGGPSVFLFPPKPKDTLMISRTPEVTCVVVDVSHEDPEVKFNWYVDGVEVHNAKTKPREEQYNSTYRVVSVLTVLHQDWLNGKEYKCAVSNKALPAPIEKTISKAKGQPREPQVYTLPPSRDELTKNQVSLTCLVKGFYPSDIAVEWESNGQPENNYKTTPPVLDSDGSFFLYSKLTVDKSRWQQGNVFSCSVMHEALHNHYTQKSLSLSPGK
light: DIQMTQTTSSLSASLGDRVTISCRASQDISNYLNWYQQKPDGTVTLLIYYTSKLHSGVPSRFSGSGSGTDYSLTITNLEQKDFATYFCQQSSTLPFTFGGGTKLEIKRTVAAPSVFIFPPSDEQLKSGTASVVCLLNNFYPREAKVQWKVDNALQSGNSQESVTEQDSKDSTYSLSSTLTLSKADYEKHKVYACEVTHQGLSSPVTKSFNRGEC
notes: Mouse Fab region with the Fc region of human IgG1-K322A
B13: HM268-M8 (antibody, human IgG1, V domains shown)
VH: B1 VH with K38R, R40V, I48M, P53F, G56A, T57S, I72A, K74T, R77S, L112T
VL: B1 VL with T45K, Y50S, K53R, S91G
notes: also called humanized HM268, VH ver.M / VL ver.8
B14: humanized HM268-K8-IgG1-K322A (antibody, V domains shown)
VH: B1 VH with A24T, V37L, P53F, G56A, T57S, I72A, R77S, L112T
VL: B7 VL with G41D, K42G, A43T, P44V, Y50S, K53R, S91G
B15: HM268-J9 (antibody, human IgG1, V domains shown)
VH: QVQLVQSGPEVKKPGASVKVVCKTSGYTFTSYYIQWVRQVPGQGLEWMGWIYFGDASTKYNEKFKGKTTLTADKSTSTAYMELRSLRSDDTAVYYCASYYGSYFDYWGQGTTVTVSS
VL: B1 VL with D41G, G42K, T43A, V44P, T45K, Y50S, K53R, S91G
notes: also called humanized HM268, VH ver.J / VL ver.9
B16: HM268-J7 (antibody, human IgG1, V domains shown)
VH: B15 VH
VL: B1 VL with S7N, P8T, T45K, Y50S, K53R, Q79E, P80Q, S91G
notes: also called humanized HM268, VH ver.J / VL ver.7
B17: HM268-M9 (antibody, human IgG1, V domains shown)
VH: B15 VH with T24A, K67R, T68V, L70M, K74T
VL: B1 VL with D41G, G42K, T43A, V44P, T45K, Y50S, K53R, S91G
notes: also called humanized HM268, VH ver.M / VL ver.9
B18: HM268-K7 (antibody, human IgG1, V domains shown)
VH: B15 VH with V37L, R38K, V40R, M48I, K67R, T68V, L70M
VL: B1 VL with S7N, P8T, T45K, Y50S, K53R, Q79E, P80Q, S91G
notes: also called humanized HM268, VH ver.K / VL ver.7
B19: HM268-M7 (antibody, human IgG1, V domains shown)
VH: B15 VH with T24A, K67R, T68V, L70M, K74T
VL: B1 VL with S7N, P8T, T45K, Y50S, K53R, Q79E, P80Q, S91G
notes: also called humanized HM268, VH ver.M / VL ver.7
B20: HM268-L9 (antibody, human IgG1, V domains shown)
VH: B15 VH with K67R, T68V, L70M, K74T
VL: B1 VL with D41G, G42K, T43A, V44P, T45K, Y50S, K53R, S91G
notes: also called humanized HM268, VH ver.L / VL ver.9
B21: HM268-J8 (antibody, human IgG1, V domains shown)
VH: B15 VH
VL: B1 VL with T45K, Y50S, K53R, S91G
notes: also called humanized HM268, VH ver.J / VL ver.8
B22: HM268-L8 (antibody, human IgG1, V domains shown)
VH: B15 VH with K67R, T68V, L70M, K74T
VL: B1 VL with T45K, Y50S, K53R, S91G
notes: also called humanized HM268, VH ver.L / VL ver.8
B23: HM268-K9 (antibody, human IgG1, V domains shown)
VH: B15 VH with V37L, R38K, V40R, M48I, K67R, T68V, L70M
VL: B1 VL with D41G, G42K, T43A, V44P, T45K, Y50S, K53R, S91G
notes: also called humanized HM268, VH ver.K / VL ver.9
B24: HM268-L7 (antibody, human IgG1, V domains shown)
VH: B15 VH with K67R, T68V, L70M, K74T
VL: B1 VL with S7N, P8T, T45K, Y50S, K53R, Q79E, P80Q, S91G
notes: also called humanized HM268, VH ver.L / VL ver.7
B25: chimeric HM268-IgG1-K322A (antibody)
heavy: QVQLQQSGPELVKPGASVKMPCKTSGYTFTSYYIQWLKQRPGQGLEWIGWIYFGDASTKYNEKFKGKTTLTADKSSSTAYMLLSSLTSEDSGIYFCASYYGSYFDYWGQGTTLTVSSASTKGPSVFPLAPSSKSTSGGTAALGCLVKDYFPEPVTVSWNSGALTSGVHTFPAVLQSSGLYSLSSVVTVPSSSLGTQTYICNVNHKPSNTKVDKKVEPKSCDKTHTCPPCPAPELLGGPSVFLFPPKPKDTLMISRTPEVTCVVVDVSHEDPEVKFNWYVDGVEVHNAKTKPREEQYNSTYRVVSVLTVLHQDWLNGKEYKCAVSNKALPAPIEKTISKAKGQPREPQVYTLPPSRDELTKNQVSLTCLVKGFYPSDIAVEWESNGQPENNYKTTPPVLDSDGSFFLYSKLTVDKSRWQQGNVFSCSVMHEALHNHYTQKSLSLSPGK
light: NIQMTQNTSSLSATLGVRVTISCRASQDISNYLNWYQQKPDGTVKLLIYSTSRLHSGIPSRFSGSGSGTDYSLTISNLEQEDIATYFCQQGSTLPFTFGGGTKLEIKRTVAAPSVFIFPPSDEQLKSGTASVVCLLNNFYPREAKVQWKVDNALQSGNSQESVTEQDSKDSTYSLSSTLTLSKADYEKHKVYACEVTHQGLSSPVTKSFNRGEC
notes: as for B12

Positions count from the first letter of the chain named. In names and notes the source's numbering stands.

The first assay addresses T1, human PD-1 (wild-type), expressed on cells (human, UniProt Q15116 25-288). As to the kind of experiment: cell-based or functional assay.
Target sequence in this assay (Q15116 25-288 limits assumed): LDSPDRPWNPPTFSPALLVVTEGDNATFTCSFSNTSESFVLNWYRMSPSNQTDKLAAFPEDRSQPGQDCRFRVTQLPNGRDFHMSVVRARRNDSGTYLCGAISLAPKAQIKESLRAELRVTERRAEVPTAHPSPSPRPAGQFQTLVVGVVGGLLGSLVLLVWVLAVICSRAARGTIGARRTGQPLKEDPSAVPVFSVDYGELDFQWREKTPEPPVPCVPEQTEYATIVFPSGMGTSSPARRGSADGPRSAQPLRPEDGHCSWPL
Turning to B1, the “Cell-cell contact assay” value stood at 18.1 ng/mL.
As for B2, the “Cell-cell contact assay” value amounted to 24.8 ng/mL.
With B3, the “Cell-cell contact assay” value came to 13.1 ng/mL.
As for B4, the “Cell-cell contact assay” value was 7.15 ng/mL.
On to B5, for which the “Cell-cell contact assay” value is 16.7 ng/mL.
With B6, the “Cell-cell contact assay” value came to 8.83 ng/mL.
Turning to B7, the “Cell-cell contact assay” value stood at 23.7 ng/mL.
Still for that read-out and setting: with B8 the figure was 20.8 ng/mL.
As for B9, the “Cell-cell contact assay” value worked out at 18.8 ng/mL.
Still for that read-out and setting: with B10 the figure was 31.5 ng/mL.
On the same count and under the same terms, with B11 the figure was 33.3 ng/mL; with B12, 13.7 ng/mL.

The next assay addresses T1, human PD-1 (wild-type), expressed on …. As to the kind of experiment: cell-based or functional assay. This is another data set of the same source.
As for B13, the “Cell-cell contact assay” value came to 75.8 ng/mL.
For B14, the “Cell-cell contact assay” value is 39.4 ng/mL.
The same measure, in the same setting: with B15 the figure was 301 ng/mL.
With B16, the “Cell-cell contact assay” value is 70.9 ng/mL.
On to B17, for which the “Cell-cell contact assay” value came to 1430 ng/mL.
As to B18, the “Cell-cell contact assay” value was 43.7 ng/mL.
The same measure, in the same setting: with B19 the figure was 149 ng/mL.
Take B20: the “Cell-cell contact assay” value stood at 87.4 ng/mL.
Consider B21, for which the “Cell-cell contact assay” value was 63.1 ng/mL.
On to B22, for which the “Cell-cell contact assay” value turned out to be 98.2 ng/mL.
Take B23: the “Cell-cell contact assay” value worked out at 150 ng/mL.
For the molecule B24, the “Cell-cell contact assay” value was 103 ng/mL.
Still for that read-out and setting: with B25 the figure was 46.5 ng/mL.

Another assay concerns the target Human PD-1/PDCD1 Protein (PD-1) (human, UniProt Q15116 25-167, limits assumed). As to the kind of experiment: SPR, Biacore 8K; PD-1 captured by anti-His antibody, antibody in flow. The protocol: The binding affinity of each antibody to human PD-1 was measured with Biacore 8K (Cytiva). Briefly, anti-His Tag antibody was immobilized by amine coupling using Amine Coupling Kit and His Capture Kit, onto 8 channels of a sensor chip (provided with 16 flow cells; one channel consisting of two flow cells) which had carboxymethyl dextran immobilized on a gold film. The immobilization was performed by feeding an activation solution (NHS and EDC mixed in equal amounts) at a flow rate of 10 μl/min for 7 minutes, an immobilization solution at a flow rate of 5 μl/min for 7 minutes, and 1 M ethanolamine hydrochloride-NaOH (pH 8.5) at a flow rate of 10 μl/min for 7 minutes. The buffer used at the time of immobilization was 1×HBS-EP+ Buffer. After the immobilization and before applying a sample, Human PD-1/PDCD1 Protein (PD-1) adjusted to 1 μg/ml with 1×HBS-EP+ Buffer was fed to one of the two flow cells of each channel in an amount of 20 μl at a flow rate of 10 μl/min to thereby capture PD-1 on the sensor chip. As regards the other flow cell, 1×HBS-EP+ Buffer was fed in the same manner to prepare a control flow cell. Each antibody was adjusted to 16 nM with 1×HBS-EP+ Buffer, and then subjected to 2-fold 7-step serial dilution using 1×HBS-EP+ Buffer. The resultant sample solution (30 μl) was fed to each flow cell at a flow rate of 10 μl/min and the response was measured. After subtracting the response of control flow cell from the response of the flow cell which was allowed to capture the ligand, KD value was calculated by curve fitting using Biacore 8K Evaluation Software.
With B1, the Kd was < 0.0211 nM.
Still for that read-out and setting: with B2 the figure was 0.103 nM; with B13, 0.00359 nM; with B3, < 0.0356 nM.
B4: the dissociation constant (Kd) was < 0.0448 nM.
B5: the Kd was < 0.0408 nM.
Take B6: the Kd was < 0.0315 nM.
As to B14, the Kd is < 0.00306 nM.
B7: the Kd is < 0.0186 nM.
Take B8: the Kd is < 0.0307 nM.
The same measure, in the same setting: with B9 the figure was < 0.0217 nM.
B15: binding was put at a Kd of 0.0252 nM.
As for B16, binding was characterised by a dissociation constant (Kd) of 0.00482 nM.
Molecule B17 had a Kd of 0.0614 nM.
Turning to B18, the Kd is 0.00691 nM.
Molecule B19 had a Kd of 0.012 nM.
Molecule B20 returned a Kd of 0.0111 nM.
Still for that read-out and setting: with B21 the figure was < 0.00284 nM.
On the same count and under the same terms, with B22 the figure was 0.00129 nM.
Consider B23, for which the Kd stood at 0.151 nM.
Consider B10, for which the Kd is < 0.0492 nM.
As to B11, the Kd was < 0.0603 nM.
B24 displayed a Kd of 0.00216 nM.
Turning to B12, the Kd is < 0.051 nM.
For the molecule B25, the Kd is < 0.00169 nM.
